# Laboratory results: patent publication US20230018670A1
# Biological target: mB7H3 (endogenous mouse B7H3 on B16 and B78 cells) (mouse) (UniProt Q8VE98)
# Experiment: flow cytometry on B16 cells (no GD2, mouse B7H3), 1 ug antibody per million cells, GAH PE; anti-GD2 antibody as control
# mB7H3 (endogenous mouse B7H3 on B16 and B78 cells) (mouse), sequence (Q8VE98 29-316 limits assumed): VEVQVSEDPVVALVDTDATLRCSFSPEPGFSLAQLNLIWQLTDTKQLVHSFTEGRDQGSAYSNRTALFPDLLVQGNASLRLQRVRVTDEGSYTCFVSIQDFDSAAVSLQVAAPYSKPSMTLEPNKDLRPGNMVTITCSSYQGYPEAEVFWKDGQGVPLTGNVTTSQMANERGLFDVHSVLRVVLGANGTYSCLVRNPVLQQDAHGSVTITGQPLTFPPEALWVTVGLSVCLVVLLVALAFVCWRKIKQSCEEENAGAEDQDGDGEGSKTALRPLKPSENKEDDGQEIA
substance,measurement,value
Invenra Dinutuximab (antibody),MFI,1 MFI
